The record followed here is patent US20260207767A1 (ANAVEON, published 2026).

This assay deals with T1, IL-2R CD122-CD132 on Jurkat-PD1+CD122+ cells (UniProt P14784 27-551; P31785 23-369).
T1 sequence (looked up) 1: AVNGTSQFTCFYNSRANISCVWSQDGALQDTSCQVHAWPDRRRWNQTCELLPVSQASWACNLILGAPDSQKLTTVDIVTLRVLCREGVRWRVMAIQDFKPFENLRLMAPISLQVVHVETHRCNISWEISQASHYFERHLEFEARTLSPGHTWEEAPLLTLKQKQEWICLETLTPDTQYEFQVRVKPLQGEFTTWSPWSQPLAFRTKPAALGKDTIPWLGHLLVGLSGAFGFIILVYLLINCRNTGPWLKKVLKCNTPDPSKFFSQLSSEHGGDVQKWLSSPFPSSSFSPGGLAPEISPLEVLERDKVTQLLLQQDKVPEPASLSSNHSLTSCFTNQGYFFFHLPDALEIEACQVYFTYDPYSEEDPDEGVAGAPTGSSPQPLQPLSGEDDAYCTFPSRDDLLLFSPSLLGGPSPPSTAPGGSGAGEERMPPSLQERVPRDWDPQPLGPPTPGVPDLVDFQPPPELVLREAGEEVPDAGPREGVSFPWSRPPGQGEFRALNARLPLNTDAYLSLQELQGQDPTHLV
T1 sequence (looked up) 2: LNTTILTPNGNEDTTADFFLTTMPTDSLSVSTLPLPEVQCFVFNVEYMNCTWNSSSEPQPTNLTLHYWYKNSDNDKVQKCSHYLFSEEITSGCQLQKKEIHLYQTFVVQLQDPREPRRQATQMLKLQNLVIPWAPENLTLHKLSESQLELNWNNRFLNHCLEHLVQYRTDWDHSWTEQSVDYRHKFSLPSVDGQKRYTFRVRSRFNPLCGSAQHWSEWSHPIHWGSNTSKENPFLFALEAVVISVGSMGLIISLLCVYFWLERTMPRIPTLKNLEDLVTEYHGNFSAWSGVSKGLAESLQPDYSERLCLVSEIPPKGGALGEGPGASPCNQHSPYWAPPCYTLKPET
Kind of assay: cell-based or functional assay.

Where a chain is given by its changes, count along the chain named.

B1: JLI141 (bispecific antibody, human IgG1, lambda, L234A L235A)
heavy 1: EVQLLESGGGLVQPGGSLRLSCAASGFTFSINAMTWVRQAPGKGLEWVSTISGSGFSTYYADSLKGRFTISRDNSKNTLYLQMNSLRAEDTAVYYCAKEVYGDYWGQGTLVTVSSASTKGPSVFPLAPSSKSTSGGTAALGCLVKDYFPEPVTVSWNSGALTSGVHTFPAVLQSSGLYSLSSVVTVPSSSLGTQTYICNVNHKPSNTKVDKRVEPKSCDKTHTCPPCPAPEAAGGPSVFLFPPKPKDTLMISRTPEVTCVVVDVSHEDPEVKFNWYVDGVEVHNAKTKPREEQYNSTYRVVSVLTVLHQDWLNGKEYKCKVSNKALAAPIEKTISKAKGQPREPQVYTLPPSREEMTKNQVSLTCLVKGFYPSDIAVEWESNGQPENNYKTTPPVLDSDGSFFLTSKLTVDKSRWQQGNVFSCSVMHEALHNHYTQKSLSLSPGK
light: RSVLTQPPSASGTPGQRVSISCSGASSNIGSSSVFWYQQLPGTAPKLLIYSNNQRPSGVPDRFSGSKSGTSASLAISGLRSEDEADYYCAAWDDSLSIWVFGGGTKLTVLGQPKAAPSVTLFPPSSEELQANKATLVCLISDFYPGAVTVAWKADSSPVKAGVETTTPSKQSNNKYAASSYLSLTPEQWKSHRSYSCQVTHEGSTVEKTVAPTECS
heavy 2: AIRLTQSPSSFSASTGDRVTITCKASQSVDYGGGNFHLRPRDLISNINVIVLELKGSETTFMCEYADETATIVEFLNRWITFSQSIISTLTPTSSSTKKTQLQLEHLLLDLQMILNGINNYKNPKLTRMLTFKFYMPKKATELKHLQCLEEELKPLEEVLNLAQSKGGGGDSYMNWYQQKPGKAPKLLIYAASNLESGVPSRFSGSGSGTDFTLTISSLQSEDFATYYCQQSNEDPYTFGGGTKVEIKGGGGSGGGGSGGGGSEVQLVQSGAEVKKPGESLKISCKGSGYAFTNYLIEWVRQMPGKGLEWMGVINPGSGGTNYNEKFKGQVTISADKSISTAYLQWSSLKASDTAMYYCARWRGEGYYAYFDVWGQGTTVTVSSGGGGSGGGGSEVQLLESGGGLVQPGGSLRLSCAASGFTFSINAMTWVRQAPGKGLEWVSTISGSGFSTYYADSLKGRFTISRDNSKNTLYLQMNSLRAEDTAVYYCAKEVYGDYWGQGTLVTVSSASTKGPSVFPLAPSSKSTSGGTAALGCLVKDYFPEPVTVSWNSGALTSGVHTFPAVLQSSGLYSLSSVVTVPSSSLGTQTYICNVNHKPSNTKVDKRVEPKSCDKTHTCPPCPAPEAAGGPSVFLFPPKPKDTLMISRTPEVTCVVVDVSHEDPEVKFNWYVDGVEVHNAKTKPREEQYNSTYRVVSVLTVLHQDWLNGKEYKCKVSNKALAAPIEKTISKAKGQPREPQVYTLPPSREEMTKNQVSLYCLVKGFYPSDIAVEWESNGQPENNYKTTPPVLDSDGSFFLYSKLTVDKSRWQQGNVFSCSVMHEALHNHYTQKSLSLSPGK
Take B1: the “EC50 value for pSTAT5 induction, Jurkat-PD-1+CD122+ cells” value (“EC50 value for pSTAT5 induction” below) was found to be 0.2 nM.

B2: QAB373 (bispecific antibody, human IgG1, kappa, L234A L235A)
heavy 1: QVQLVQSGAEVKKPGASVKVSCKASGYTFTNFYIHWVRQAPGQGLEWMGSIYPNYGITAYNQKFKDRVTMTVDTSTSTAYMELRSLRSDDTAVYYCARGYSYAMDYWGQGTTVTVSSASVAAPSVFIFPPSDEQLKSGTASVVCLLNNFYPREAKVQWKVDNALQSGNSQESVTEQDSKDSTYSLSSTLTLSKADYEKHKVYACEVTHQGLSSPVTKSFNRGECDKTHTCPPCPAPEAAGGPSVFLFPPKPKDTLMISRTPEVTCVVVDVSHEDPEVKFNWYVDGVEVHNAKTKPREEQYNSTYRVVSVLTVLHQDWLNGKEYKCKVSNKALAAPIEKTISKAKGQPREPQVYTLPPSREEMTKNQVSLTCLVKGFYPSDIAVEWESNGQPENNYKTTPPVLDSDGSFFLTSKLTVDKSRWQQGNVFSCSVMHEALHNHYTQKSLSLSPGK
light 1: DIQMTQSPSSVSASVGDRVTITCSASQGISGDLNWYQQKPGKAPKLLIYHTSQLHSDVPSRFSGSGSGTDFTLTISSLQPEDFATYYCQGYSKDLLTFGGGTKLEIKSSASTKGPSVFPLAPSSKSTSGGTAALGCLVKDYFPEPVTVSWNSGALTSGVHTFPAVLQSSGLYSLSSVVTVPSSSLGTQTYICNVNHKPSNTKVDKRVEPKSC
heavy 2: EVQLVQSGAEVKKPGESLKISCKGSGYAFTNYLIEWVRQMPGKGLEWMGVINPGSGGTNYNEKFKGQVTISADKSISTAYLQWSSLKASDTAMYYCARWRGEGYYAYFDVWGQGTTVTVSSASTKGPSVFPLAPSSKSTSGGTAALGCLVKDYFPEPVTVSWNSGALTSGVHTFPAVLQSSGLYSLSSVVTVPSSSLGTQTYICNVNHKPSNTKVDKRVEPKSCDKTHTCPPCPAPEAAGGPSVFLFPPKPKDTLMISRTPEVTCVVVDVSHEDPEVKFNWYVDGVEVHNAKTKPREEQYNSTYRVVSVLTVLHQDWLNGKEYKCKVSNKALAAPIEKTISKAKGQPREPQVYTLPPSREEMTKNQVSLYCLVKGFYPSDIAVEWESNGQPENNYKTTPPVLDSDGSFFLYSKLTVDKSRWQQGNVFSCSVMHEALHNHYTQKSLSLSPGK
light 2: not shown
As for B2, the “EC50 value for pSTAT5 induction” value came to 70 pM.

B3: RIB426 (bispecific antibody, human IgG1, kappa, L234A L235A)
heavy 1: B2 heavy 1 with S50R
light 1: B2 light 1 with L54R
heavy 2: B2 heavy 2
light 2: not shown
Take B3: the “EC50 value for pSTAT5 induction” value amounted to 0.12 nM.

B4: GQM289 (bispecific antibody, human IgG1, kappa, lambda, L234A L235A)
heavy 1: B1 heavy 1
light 1: not shown
heavy 2: B2 heavy 2
light 2: not shown
As to B4, the “EC50 value for pSTAT5 induction” value was found to be 0.22 nM.

B5: MDS446 (bispecific antibody, human IgG1, kappa, L234A L235A)
heavy 1: QVQLVQSGAEVKKPGASVKVSCKASGYTFTNFYIHWVRQAPGQGLEWMGSIYPNYGITAYNQKFKDRVTMTVDTSTSTAYMELRSLRSDDTAVYYCARGYSYAMDYWGQGTTVTVSSASTKGPSVFPLAPSSKSTSGGTAALGCLVKDYFPEPVTVSWNSGALTSGVHTFPAVLQSSGLYSLSSVVTVPSSSLGTQTYICNVNHKPSNTKVDKRVEPKSCDKTHTCPPCPAPEAAGGPSVFLFPPKPKDTLMISRTPEVTCVVVDVSHEDPEVKFNWYVDGVEVHNAKTKPREEQYNSTYRVVSVLTVLHQDWLNGKEYKCKVSNKALAAPIEKTISKAKGQPREPQVYTLPPSREEMTKNQVSLTCLVKGFYPSDIAVEWESNGQPENNYKTTPPVLDSDGSFFLTSKLTVDKSRWQQGNVFSCSVMHEALHNHYTQKSLSLSPGK
light: DIQMTQSPSSVSASVGDRVTITCSASQGISGDLNWYQQKPGKAPKLLIYHTSQLHSDVPSRFSGSGSGTDFTLTISSLQPEDFATYYCQGYSKDLLTFGGGTKLEIKRTVAAPSVFIFPPSDEQLKSGTASVVCLLNNFYPREAKVQWKVDNALQSGNSQESVTEQDSKDSTYSLSSTLTLSKADYEKHKVYACEVTHQGLSSPVTKSFNRGEC
heavy 2: AIRLTQSPSSFSASTGDRVTITCKASQSVDYGGGNFHLRPRDLISNINVIVLELKGSETTFMCEYADETATIVEFLNRWITFSQSIISTLTPTSSSTKKTQLQLEHLLLDLQMILNGINNYKNPKLTRMLTFKFYMPKKATELKHLQCLEEELKPLEEVLNLAQSKGGGGDSYMNWYQQKPGKAPKLLIYAASNLESGVPSRFSGSGSGTDFTLTISSLQSEDFATYYCQQSNEDPYTFGGGTKVEIKGGGGSGGGGSGGGGSEVQLVQSGAEVKKPGESLKISCKGSGYAFTNYLIEWVRQMPGKGLEWMGVINPGSGGTNYNEKFKGQVTISADKSISTAYLQWSSLKASDTAMYYCARWRGEGYYAYFDVWGQGTTVTVSSGGGGSGGGGSQVQLVQSGAEVKKPGASVKVSCKASGYTFTNFYIHWVRQAPGQGLEWMGSIYPNYGITAYNQKFKDRVTMTVDTSTSTAYMELRSLRSDDTAVYYCARGYSYAMDYWGQGTTVTVSSASTKGPSVFPLAPSSKSTSGGTAALGCLVKDYFPEPVTVSWNSGALTSGVHTFPAVLQSSGLYSLSSVVTVPSSSLGTQTYICNVNHKPSNTKVDKRVEPKSCDKTHTCPPCPAPEAAGGPSVFLFPPKPKDTLMISRTPEVTCVVVDVSHEDPEVKFNWYVDGVEVHNAKTKPREEQYNSTYRVVSVLTVLHQDWLNGKEYKCKVSNKALAAPIEKTISKAKGQPREPQVYTLPPSREEMTKNQVSLYCLVKGFYPSDIAVEWESNGQPENNYKTTPPVLDSDGSFFLYSKLTVDKSRWQQGNVFSCSVMHEALHNHYTQKSLSLSPGK
For the molecule B5, the “EC50 value for pSTAT5 induction” value came to 60 pM.

B6: TMU471 (bispecific antibody, human IgG1, kappa, L234A L235A)
heavy 1: B5 heavy 1 with S50R
light: B5 light with L54R
heavy 2: B5 heavy 2 with S444R
Turning to B6, the “EC50 value for pSTAT5 induction” value is 60 pM.
